# Laboratory results reported in publication PMC5748854 (The Journal of Experimental Medicine, 2018).
# B1: 1710 IgG (antibody, V domains shown)
# VH: EVQLQESGGGLVKPGGSLRLSCAASGFTFSSYSMNWVRQAPGKGLEWVSSITSSSSYIYYADSVKGRFTISRDNAKNSLYLQMNSLRAEDTAVYYCARDPGIAAADNHWFDPWGQGTLVTVSS
# VL: not shown
# Target: C-PfCSP (recombinant PfCSP C terminus, linker and αTSR subdomains) (Plasmodium falciparum NF54, UniProt P19597)
# Experiment: ELISA
binder,measurement,value
B1,binding result,binds
